# IntAct's records for PubMed 19625296
# How the values were obtained:
# dvl2_human DVL2 = dvl2_human DVL2 (UniProt O14641)
# dvl3_human DVL3 = dvl3_human DVL3 (UniProt Q92997)
# Sequence of UniProt Q92997 (Q92997 whole entry): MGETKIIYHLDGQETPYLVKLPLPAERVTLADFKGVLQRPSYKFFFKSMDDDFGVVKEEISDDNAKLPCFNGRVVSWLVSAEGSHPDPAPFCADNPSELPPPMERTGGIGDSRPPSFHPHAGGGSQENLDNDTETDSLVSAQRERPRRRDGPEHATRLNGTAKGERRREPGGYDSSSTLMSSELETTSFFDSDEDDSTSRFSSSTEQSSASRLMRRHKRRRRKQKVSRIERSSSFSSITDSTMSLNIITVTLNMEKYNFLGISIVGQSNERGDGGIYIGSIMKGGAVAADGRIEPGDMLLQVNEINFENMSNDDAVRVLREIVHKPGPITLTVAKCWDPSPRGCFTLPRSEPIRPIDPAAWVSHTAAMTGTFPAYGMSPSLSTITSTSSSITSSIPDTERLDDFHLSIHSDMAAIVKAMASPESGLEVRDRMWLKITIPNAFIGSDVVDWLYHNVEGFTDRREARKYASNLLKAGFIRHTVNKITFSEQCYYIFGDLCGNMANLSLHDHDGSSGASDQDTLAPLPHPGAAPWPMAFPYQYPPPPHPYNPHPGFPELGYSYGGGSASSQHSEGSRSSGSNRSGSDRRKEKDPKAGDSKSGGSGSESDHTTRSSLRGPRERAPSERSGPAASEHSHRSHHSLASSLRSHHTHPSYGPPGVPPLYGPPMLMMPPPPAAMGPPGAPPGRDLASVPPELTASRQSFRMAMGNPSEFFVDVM
# Sequence of DVL1, O14640-2 (O14640 other isoform, or with tags, fused parts or gaps): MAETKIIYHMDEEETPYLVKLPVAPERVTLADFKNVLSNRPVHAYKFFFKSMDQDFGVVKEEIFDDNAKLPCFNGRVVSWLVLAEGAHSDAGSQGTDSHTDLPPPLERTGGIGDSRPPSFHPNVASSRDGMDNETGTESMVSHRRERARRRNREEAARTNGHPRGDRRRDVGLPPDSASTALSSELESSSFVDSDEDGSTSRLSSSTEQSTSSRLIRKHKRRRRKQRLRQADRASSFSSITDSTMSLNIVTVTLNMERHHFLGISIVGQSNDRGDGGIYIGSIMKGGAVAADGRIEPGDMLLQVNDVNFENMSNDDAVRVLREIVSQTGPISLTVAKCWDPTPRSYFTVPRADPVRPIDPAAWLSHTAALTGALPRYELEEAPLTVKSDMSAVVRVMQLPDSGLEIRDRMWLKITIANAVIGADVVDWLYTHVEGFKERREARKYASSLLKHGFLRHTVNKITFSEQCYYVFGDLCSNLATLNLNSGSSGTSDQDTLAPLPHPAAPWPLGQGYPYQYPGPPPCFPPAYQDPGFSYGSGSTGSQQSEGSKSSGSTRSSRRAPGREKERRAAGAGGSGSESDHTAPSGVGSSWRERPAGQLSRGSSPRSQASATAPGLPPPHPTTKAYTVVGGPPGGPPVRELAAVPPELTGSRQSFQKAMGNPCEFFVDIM
# Sequence of UniProt O14641 (O14641 whole entry): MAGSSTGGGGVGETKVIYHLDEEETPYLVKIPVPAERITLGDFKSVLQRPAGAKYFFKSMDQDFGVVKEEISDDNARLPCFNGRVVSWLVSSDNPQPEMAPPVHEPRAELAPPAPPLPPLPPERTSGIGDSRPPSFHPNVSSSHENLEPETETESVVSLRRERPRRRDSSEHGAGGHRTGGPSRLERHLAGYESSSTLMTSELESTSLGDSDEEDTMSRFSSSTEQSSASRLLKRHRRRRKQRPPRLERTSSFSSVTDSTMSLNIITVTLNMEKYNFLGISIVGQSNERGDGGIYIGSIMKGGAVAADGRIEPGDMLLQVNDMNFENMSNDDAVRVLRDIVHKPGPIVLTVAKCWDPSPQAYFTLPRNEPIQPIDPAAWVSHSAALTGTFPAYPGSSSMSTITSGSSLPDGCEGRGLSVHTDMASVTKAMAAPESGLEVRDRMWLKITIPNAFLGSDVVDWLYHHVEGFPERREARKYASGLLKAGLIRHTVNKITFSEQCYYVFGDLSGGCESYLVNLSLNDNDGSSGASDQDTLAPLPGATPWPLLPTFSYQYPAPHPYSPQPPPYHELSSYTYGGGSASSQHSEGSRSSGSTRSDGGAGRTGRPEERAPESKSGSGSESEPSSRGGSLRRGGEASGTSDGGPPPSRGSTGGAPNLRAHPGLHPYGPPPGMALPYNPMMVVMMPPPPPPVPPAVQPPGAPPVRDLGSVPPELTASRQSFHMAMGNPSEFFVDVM
Substance,"effect of a mutation on the interaction (DVL1, O14640-2)",effect of a mutation on the interaction (dvl2_human DVL2),effect of a mutation on the interaction (dvl3_human DVL3)
"Leucine-rich repeat serine/threonine-protein kinase 2 (Homo sapiens), Q5S007 R1441C",increasing interaction,,
"Leucine-rich repeat serine/threonine-protein kinase 2 (Homo sapiens), Q5S007 R1441G",increasing interaction,,
"Leucine-rich repeat serine/threonine-protein kinase 2 (Homo sapiens), Q5S007 R1514Q",,decreasing interaction,
"Leucine-rich repeat serine/threonine-protein kinase 2 (Homo sapiens), Q5S007 Y1699C",decreasing interaction,decreasing interaction,decreasing interaction

# Results, then the substance that gave them:
"effect of a mutation on the interaction (DVL1, O14640-2)",effect of a mutation on the interaction (dvl2_human DVL2),effect of a mutation on the interaction (dvl3_human DVL3),Substance
increasing interaction,,,"Leucine-rich repeat serine/threonine-protein kinase 2 (Homo sapiens), Q5S007 R1441H"
increasing interaction,,,"Leucine-rich repeat serine/threonine-protein kinase 2 (Homo sapiens), Q5S007 R1728H"
increasing interaction,,,"Leucine-rich repeat serine/threonine-protein kinase 2 (Homo sapiens), Q5S007 R1728L"
